From PMC7057681 (ACS Omega, 2020)
Residue numbers refer to the chain shown, from its start. Names may count otherwise.

B1: S100A3 R51Q mutant (natural protein, human)
chain: MARPLEQAVAAIVCTFQEYAGRCGDKYKLCQAELKELLQKELATWTPTEFQECDYNKFMSVLDTNKDCEVDFVEYVRSLACLCLYCHEYFKDCPSEPPCSQ
B2: citrullinated S100A3 (R51Z), WT S100A3 citrullinated in vitro by PAD3 (natural protein, human)
chain: B1 chain with Q51R
modifications: citrulline at R51 (by PAD3 in vitro)
B3: S100A3 R51E mutant (natural protein, human)
chain: B1 chain with Q51E

What was measured:
[1] = molecular target: the molecule itself; assay: SEC-SAXS
[2] = molecular target: the molecule itself; assay: SEC
[3] = molecular target: the molecule itself; assay: SEC; remark: listed apart in the source

Protein	stoichiometry N [1]	stoichiometry N [2]	stoichiometry N [3]
B1	2	4	–
B2	–	4	–
B3	–	–	4
